Data: patent US20090324603A1 (VAN ANDEL RESEARCH INSTITUTE, published 2009)

Assays:
[1] = molecular target: human c-Met (HGF/SF receptor) on S114 and MKN45 cells (human, UniProt P08581 25-1390); assay: cell-based or functional assay
[2] = molecular target: T1, recombinant c-Met antigen (human, UniProt P08581 25-932, limits assumed); assay: non-competitive ELISA, Kd of scFv-S1 against Kd of the original Fab
T1 construct: also called immobilized Met antigen; human Met antigen
Description: (§1) The most commonly used formula was established by David Beatty and the equation was Kaff=(n−1)/(2{n[Ab′]ₜ−[Ab]ₜ}) (n=[Ag]/[Ag′]). This method utilized OD-50 of the sigmoid curve and obviated the need for affinity purification of antibody used as standard. Using serial dilutions of both antigen ([Ag], [Ag′]) and antibody (scFv antibody), the affinity constant (Kaff) was measured by non-competitive ELISA. Two sigmoid curves of optical density (OD) versus logarithms of antibody concentrations were estimated by SPSS 10.0 software. The maximum value of OD (OD-100) of each curve was computed respectively and OD-50, half of OD-100, was obtained. Then the concentrations of antibody corresponding to OD-50 on the curves, named [Ab]ₜ and [Ab′]ₜ were calculated. For [Ag′]=½[Ag], Kaff=1/{2[Ab′]ₜ−[Ab]ₜ}.

[3] = molecular target: T1, recombinant c-Met antigen; assay: non-competitive ELISA with serial dilutions of both Met and scFv (Beatty method)
Description: as §1

Sequence of human c-Met (HGF/SF receptor) on S114 and MKN45 cells (P08581 25-1390): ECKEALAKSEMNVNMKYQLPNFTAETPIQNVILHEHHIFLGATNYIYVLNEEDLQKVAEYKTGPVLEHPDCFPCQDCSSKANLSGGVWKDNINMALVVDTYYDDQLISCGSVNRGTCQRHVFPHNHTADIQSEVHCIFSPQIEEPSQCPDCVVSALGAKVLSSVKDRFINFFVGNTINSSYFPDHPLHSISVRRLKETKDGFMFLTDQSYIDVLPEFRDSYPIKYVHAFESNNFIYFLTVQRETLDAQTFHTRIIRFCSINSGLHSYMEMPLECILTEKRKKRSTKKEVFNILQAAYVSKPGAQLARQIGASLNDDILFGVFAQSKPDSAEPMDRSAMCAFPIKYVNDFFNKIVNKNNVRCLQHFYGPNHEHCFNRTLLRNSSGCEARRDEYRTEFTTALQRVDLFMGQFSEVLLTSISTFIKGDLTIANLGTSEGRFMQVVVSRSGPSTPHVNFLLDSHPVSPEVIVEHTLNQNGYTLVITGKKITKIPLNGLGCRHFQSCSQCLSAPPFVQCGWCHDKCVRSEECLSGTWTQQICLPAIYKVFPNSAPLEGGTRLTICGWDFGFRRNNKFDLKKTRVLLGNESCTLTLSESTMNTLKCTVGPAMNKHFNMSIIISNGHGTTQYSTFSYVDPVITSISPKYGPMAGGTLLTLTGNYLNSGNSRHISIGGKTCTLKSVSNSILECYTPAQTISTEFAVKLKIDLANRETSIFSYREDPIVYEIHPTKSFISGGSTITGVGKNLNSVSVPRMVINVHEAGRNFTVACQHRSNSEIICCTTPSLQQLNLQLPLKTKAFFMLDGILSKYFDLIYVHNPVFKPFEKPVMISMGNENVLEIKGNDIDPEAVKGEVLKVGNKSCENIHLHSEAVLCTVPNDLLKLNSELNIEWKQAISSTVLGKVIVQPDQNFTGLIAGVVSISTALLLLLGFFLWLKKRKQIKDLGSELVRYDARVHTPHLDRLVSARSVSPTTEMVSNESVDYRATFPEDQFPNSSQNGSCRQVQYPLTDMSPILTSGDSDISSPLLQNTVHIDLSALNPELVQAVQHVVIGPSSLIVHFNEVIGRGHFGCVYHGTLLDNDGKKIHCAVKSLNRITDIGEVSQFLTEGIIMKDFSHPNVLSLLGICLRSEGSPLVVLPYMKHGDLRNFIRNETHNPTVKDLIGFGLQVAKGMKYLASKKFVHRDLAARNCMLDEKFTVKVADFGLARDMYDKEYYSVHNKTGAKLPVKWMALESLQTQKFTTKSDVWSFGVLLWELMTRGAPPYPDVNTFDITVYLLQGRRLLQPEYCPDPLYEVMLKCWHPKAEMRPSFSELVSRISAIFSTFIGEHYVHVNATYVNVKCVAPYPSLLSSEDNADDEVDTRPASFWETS
T1 sequence (P08581 25-932 limits assumed): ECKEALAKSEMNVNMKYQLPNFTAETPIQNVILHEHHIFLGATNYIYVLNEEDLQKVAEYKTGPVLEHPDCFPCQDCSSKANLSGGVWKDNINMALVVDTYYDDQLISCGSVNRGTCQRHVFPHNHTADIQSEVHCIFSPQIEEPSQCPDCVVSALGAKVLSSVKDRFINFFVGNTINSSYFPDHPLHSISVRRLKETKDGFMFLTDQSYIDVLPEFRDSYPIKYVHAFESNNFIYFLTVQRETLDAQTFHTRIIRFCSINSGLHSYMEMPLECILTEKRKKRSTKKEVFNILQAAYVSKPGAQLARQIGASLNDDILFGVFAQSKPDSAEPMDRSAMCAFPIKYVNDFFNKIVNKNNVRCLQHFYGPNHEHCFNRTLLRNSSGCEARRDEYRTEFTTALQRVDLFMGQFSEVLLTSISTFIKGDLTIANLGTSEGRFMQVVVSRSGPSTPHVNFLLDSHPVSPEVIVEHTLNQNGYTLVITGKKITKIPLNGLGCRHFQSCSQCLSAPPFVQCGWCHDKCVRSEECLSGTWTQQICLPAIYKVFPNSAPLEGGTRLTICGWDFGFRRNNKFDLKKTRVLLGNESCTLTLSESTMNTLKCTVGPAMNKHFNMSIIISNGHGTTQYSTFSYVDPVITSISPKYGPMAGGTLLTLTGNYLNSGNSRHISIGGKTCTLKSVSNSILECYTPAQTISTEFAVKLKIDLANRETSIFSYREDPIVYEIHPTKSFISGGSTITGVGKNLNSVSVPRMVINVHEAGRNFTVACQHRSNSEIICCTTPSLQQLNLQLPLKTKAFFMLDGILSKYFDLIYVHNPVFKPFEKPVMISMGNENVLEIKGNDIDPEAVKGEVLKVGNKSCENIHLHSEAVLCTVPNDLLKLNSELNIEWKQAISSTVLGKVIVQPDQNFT

B1: anti-Met Fab-Met-2 (Fab, V domains shown)
VH: EVQLVESGGGVVQPGRSLRLSCAASGFTFSSYAMHWVRQAPGKGLEWVAVIWYDGSNRYYADSVKGRFTISRDNSKNTLYLQMNSLRAEDTAVYYCASQATEGLIWGQGTLVTVSP
VL: ELQMTQSPSLLSASTGDRVTISCRASQSISSYLNWYQQKPGKAPKLLIYTRSSLQSGVPSRFSGSGSGTDFTLTISSLQPEDFATYYCQQSYSTPHTFGQGTKLEIKR
[1]
  inhibition ratio of S114 cells incubated with 800 ng Fab and Hum-ZAP, 72 hrs: 73.8%
  inhibition ratio of S114 cells incubated with 800 ng Fab and Hum-ZAP, 96 hrs: 62.7%

B2: anti-Met scFv-S1 (scFv)
scFv: ELQMTQSPSLLSASTGDRVTISCRASQSISSYLNWYQQKPGKAPKLLIYTRSSLQSGVPSRFSGSGSGTDFTLTISSLQPEDFATYYCQQSYSTPHTFGQGTKLEIKGGSSRSSSSGGGGSGGGGEVQLVESGGGVVQPGRSLRLSCAASGFTFSSYAMHWVRQAPGKGLEWVAVIWYDGSNRYYADSVKGRFTISRDNSKNTLYLQMNSLRAEDTAVYYCASQATEGLIWGQGTLVTVSP
notes: also called scFv Si; S1 phage
[2]
  fold increase in affinity against the original Fab: 117 times
[3]
  Kd: 51.5 nM
